The values that follow come from the supplement of paper PMC12067230.

Sequences and labels used below:
B1: E-18-T; numbered along this chain (parent)
chain: EASNCFAIRHFENKFAVETLICFNLFLNSQEKHY

± gives the uncertainty stated by the source.

In this data set the parent is B1. In words: amyloid nucleation score relative to WT ADan (yeast Sup35 reporter selection) (log enrichment difference); higher = more amyloid nucleation. On the procedure:
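Deep mutational scan of the ADan peptide fused to the Sup35 nucleation domain (SupN) in S. cerevisiae [psi-pin-], covering all single amino-acid substitutions and stop truncations (truncations = sequence up to the stop). After 24 h Cu2+ induction, cells were selected on -ADE-URA plates for 7 d at 30 °C. The nucleation score is log enrichment (output/input, deep sequencing) minus that of WT ADan, as the error-weighted mean of 3 biological replicates (DiMSum).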
Consider EASNCFAIRHFENKFAVTTLICFNLFLNSQEKHY [E18T], for which the amyloid nucleation score was -1.61 ± 0.21. Take EASNCFAIRHFENKFAVWTLICFNLFLNSQEKHY [E18W]: the amyloid nucleation score is -4.12 ± 0.54. The result for EASNCFAIRHFENKFAVVTLICFNLFLNSQEKHY [E18V] reads -2.72 ± 0.29; that for EASNCFAIRHFENKFAVSTLICFNLFLNSQEKHY [E18S], -0.355 ± 0.11; that for EASNCFAIRHFENKFAVYTLICFNLFLNSQEKHY [E18Y], -5.47 ± 1.1. The same measure for EASNCFAIRHFENKFAVRTLICFNLFLNSQEKHY [E18R]: -0.108 ± 0.1. In the case of EASNCFAIRHFENKFAVETDICFNLFLNSQEKHY [L20D], the amyloid nucleation score was -2.35 ± 0.21.

In the case of EASNCFAIRHFENKFAVETQICFNLFLNSQEKHY [L20Q], the amyloid nucleation score is -1.95 ± 0.24. The result for EASNCFAIRHFENKFAVETPICFNLFLNSQEKHY [L20P] reads 0.75 ± 0.16; that for EASNCFAIRHFENKFAVETMICFNLFLNSQEKHY [L20M], 1.01 ± 0.17; that for EASNCFAIRHFENKFAVETGICFNLFLNSQEKHY [L20G], 0.273 ± 0.097. Consider EASNCFAIRHFENKFAVETHICFNLFLNSQEKHY [L20H], for which the amyloid nucleation score is -2.5 ± 0.26. The result for EASNCFAIRHFENKFAVETAICFNLFLNSQEKHY [L20A] reads -1.66 ± 0.16.

Turning to EASNCFAIRHFENKFAVETNICFNLFLNSQEKHY [L20N], the amyloid nucleation score was -1.24 ± 0.19. The result for EASNCFAIRHFENKFAVETWICFNLFLNSQEKHY [L20W] reads -2.59 ± 0.24; that for EASNCFAIRHFENKFAVETTICFNLFLNSQEKHY [L20T], -2.92 ± 0.34; that for EASNCFAIRHFENKFAVETVICFNLFLNSQEKHY [L20V], -1.46 ± 0.12. The result for EASNCFAIRHFENKFAVETKICFNLFLNSQEKHY [L20K] reads -4.53 ± 0.6; that for EASNCFAIRHFENKFAVETIICFNLFLNSQEKHY [L20I], -0.22 ± 0.15; that for EASNCFAIRHFENKFAVETRICFNLFLNSQEKHY [L20R], -3.67 ± 0.24. The result for EASNCFAIRHFENKFAVETFICFNLFLNSQEKHY [L20F] reads -0.103 ± 0.12; that for EASNCFAIRHFENKFAVETEICFNLFLNSQEKHY [L20E], -3.91 ± 0.49; that for EASNCFAIRHFENKFAVETYICFNLFLNSQEKHY [L20Y], -2.66 ± 0.28. Take EASNCFAIRHFENKFAVETSICFNLFLNSQEKHY [L20S]: the amyloid nucleation score was -3.53 ± 0.23. The same measure for EASNCFAIRHFENKFAVETCICFNLFLNSQEKHY [L20C]: -0.49 ± 0.13; for EASNCFAIRHFENKFAVEDLICFNLFLNSQEKHY [T19D]: -0.804 ± 0.17. The same measure for EASNCFAIRHFENKFAVECLICFNLFLNSQEKHY [T19C]: -2.47 ± 0.27; for EASNCFAIRHFENKFAVEFLICFNLFLNSQEKHY [T19F]: -3.39 ± 0.4. The result for EASNCFAIRHFENKFAVEILICFNLFLNSQEKHY [T19I] reads -3.44 ± 0.43; that for EASNCFAIRHFENKFAVEQLICFNLFLNSQEKHY [T19Q], 0.45 ± 0.2; that for EASNCFAIRHFENKFAVEVLICFNLFLNSQEKHY [T19V], -3.41 ± 0.34. On to EASNCFAIRHFENKFAVEELICFNLFLNSQEKHY [T19E], for which the amyloid nucleation score is -0.714 ± 0.17.

In the case of EASNCFAIRHFENKFAVESLICFNLFLNSQEKHY [T19S], the amyloid nucleation score stood at 0.268 ± 0.11.

As to EASNCFAIRHFENKFAVEMLICFNLFLNSQEKHY [T19M], the amyloid nucleation score is -1.99 ± 0.54.

Regarding EASNCFAIRHFENKFAVELLICFNLFLNSQEKHY [T19L], the amyloid nucleation score was -4.84 ± 0.63.

For the variant EASNCFAIRHFENKFAVEALICFNLFLNSQEKHY [T19A], the amyloid nucleation score was -2.16 ± 0.23. The result for EASNCFAIRHFENKFAVEYLICFNLFLNSQEKHY [T19Y] reads -0.511 ± 0.18; that for EASNCFAIRHFENKFAVEHLICFNLFLNSQEKHY [T19H], -0.0921 ± 0.27.

For EASNCFAIRHFENKFAVEGLICFNLFLNSQEKHY [T19G], the amyloid nucleation score worked out at 0.166 ± 0.098. The result for EASNCFAIRHFENKFAVENLICFNLFLNSQEKHY [T19N] reads 0.196 ± 0.16.

For EASNCFAIRHFENKFAVEWLICFNLFLNSQEKHY [T19W], the amyloid nucleation score was -2.17 ± 0.28. The result for EASNCFAIRHFENKFAVEKLICFNLFLNSQEKHY [T19K] reads 0.347 ± 0.17. The same measure for EASNCFAIRHFENKFAVEPLICFNLFLNSQEKHY [T19P]: 0.859 ± 0.18; for EASNCFAIRHFENKFAVERLICFNLFLNSQEKHY [T19R]: 0.563 ± 0.1.

On to EASNCFAIRHFENKFAVETLILFNLFLNSQEKHY [C22L], for which the amyloid nucleation score is -0.346 ± 0.099. The same measure for EASNCFAIRHFENKFAVETLIHFNLFLNSQEKHY [C22H]: -1.92 ± 0.28; for EASNCFAIRHFENKFAVETLIAFNLFLNSQEKHY [C22A]: 0.347 ± 0.1; for EASNCFAIRHFENKFAVETLIIFNLFLNSQEKHY [C22I]: -0.375 ± 0.17.

For EASNCFAIRHFENKFAVETLIFFNLFLNSQEKHY [C22F], the amyloid nucleation score is -0.753 ± 0.13. The same measure for EASNCFAIRHFENKFAVETLIEFNLFLNSQEKHY [C22E]: -2.4 ± 0.2.

With EASNCFAIRHFENKFAVETLIKFNLFLNSQEKHY [C22K], the amyloid nucleation score is -2.31 ± 0.24. The same measure for EASNCFAIRHFENKFAVETLIGFNLFLNSQEKHY [C22G]: -1.17 ± 0.097; for EASNCFAIRHFENKFAVETLIDFNLFLNSQEKHY [C22D]: -3.23 ± 0.32. The result for EASNCFAIRHFENKFAVETLQCFNLFLNSQEKHY [I21Q] reads 0.332 ± 0.19; that for EASNCFAIRHFENKFAVETLWCFNLFLNSQEKHY [I21W], 0.109 ± 0.13; that for EASNCFAIRHFENKFAVETLYCFNLFLNSQEKHY [I21Y], 0.68 ± 0.17. Regarding EASNCFAIRHFENKFAVETLECFNLFLNSQEKHY [I21E], the amyloid nucleation score is -0.48 ± 0.17. The same measure for EASNCFAIRHFENKFAVETLGCFNLFLNSQEKHY [I21G]: -0.00868 ± 0.097; for EASNCFAIRHFENKFAVETLVCFNLFLNSQEKHY [I21V]: -0.0338 ± 0.098. The result for EASNCFAIRHFENKFAVETLKCFNLFLNSQEKHY [I21K] reads -0.182 ± 0.17. Turning to EASNCFAIRHFENKFAVETLACFNLFLNSQEKHY [I21A], the amyloid nucleation score is -0.465 ± 0.13. Consider EASNCFAIRHFENKFAVETLTCFNLFLNSQEKHY [I21T], for which the amyloid nucleation score was 0.7 ± 0.12.

With EASNCFAIRHFENKFAVETLFCFNLFLNSQEKHY [I21F], the amyloid nucleation score stood at 0.0204 ± 0.11. The same measure for EASNCFAIRHFENKFAVETLCCFNLFLNSQEKHY [I21C]: 0.511 ± 0.13; for EASNCFAIRHFENKFAVETLHCFNLFLNSQEKHY [I21H]: 0.679 ± 0.27. The same measure for EASNCFAIRHFENKFAVETLSCFNLFLNSQEKHY [I21S]: 0.32 ± 0.097; for EASNCFAIRHFENKFAVETLLCFNLFLNSQEKHY [I21L]: -0.0345 ± 0.097; for EASNCFAIRHFENKFAVETLRCFNLFLNSQEKHY [I21R]: -1.05 ± 0.12. The result for EASNCFAIRHFENKFAVETLPCFNLFLNSQEKHY [I21P] reads -3.66 ± 0.62; that for EASNCFAIRHFENKFAVETLMCFNLFLNSQEKHY [I21M], -0.308 ± 0.15. As to EASNCFAIRHFENKFAVETLNCFNLFLNSQEKHY [I21N], the amyloid nucleation score was determined as 0.877 ± 0.15.

As to EASNCFAIRHFENKFAVETLDCFNLFLNSQEKHY [I21D], the amyloid nucleation score is -3.79 ± 0.7.
